Laboratory results taken from publication PMC2582589 (Structure (London, England : 1993), 2008).
Read-outs that look alike come from different tables or passages of the source. Square brackets hold non-standard residues; d marks the D form. Ends that are not written are not given here. Lys(Me3) = C[N+](C)(C)CCCC[C@H](N)C(=O)O

Columns and labels:
[1] = target: T1, Eaf3 chromo barrel domain (1–113 aa) (Saccharomyces cerevisiae, UniProt Q12432); test: 15N-1H HSQC NMR titration of 15N-labeled Eaf3; format: binding; conditions: for affinity for Eaf3 (in words): HSQC titration, pH 6.7; for affinity relative to other methylated ligands (in words): from KD comparison
T1 sequence (Q12432 1-113): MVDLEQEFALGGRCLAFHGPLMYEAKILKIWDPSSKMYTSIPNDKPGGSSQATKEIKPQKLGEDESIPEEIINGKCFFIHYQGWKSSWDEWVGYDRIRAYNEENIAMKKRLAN

[2] = target: T2, Eaf3 chromo barrel domain (1–113 aa) (S. cerevisiae, UniProt Q12432 1-113); test: NMR titration
T2 sequence (looked up): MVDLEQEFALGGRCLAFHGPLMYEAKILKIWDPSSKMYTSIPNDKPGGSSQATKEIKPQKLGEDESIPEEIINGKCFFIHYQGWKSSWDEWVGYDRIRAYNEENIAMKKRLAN

[3] = Gel filtration chromatography of extended Eaf3; format: physicochemical; conditions: change in gel filtration chromatography retention time (data not shown)
[4] = Protein stability, precipitation or aggregation of Eaf3 constructs; format: physicochemical; conditions: purified proteins expressed in Escherichia coli or NMR samples
[5] = tested on: Eaf3 chromo barrel domain and linked H3KC36me2; test: 15N-1H HSQC spectra of fused Eaf3-H3C36; format: binding, Saccharomyces cerevisiae; conditions: 15N-1H HSQC before and after dimethylation, 300K, pH 6.7
[6] = read-out: dissociation constant (KD), 15N-1H HSQC titration, 15N-labeled Eaf3 (1–113 aa), 300K, 20 mM NaPi pH 6.7, 50 mM NaCl, 1 mM EDTA, 2 mM DTT, range of estimates from amide peaks of two to four selected amino acids, curve fitting

Molecule: CN(C)C(N)=NCCC[C@H](N)C(=O)O [asymmetrically dimethylated arginine, reference compound]
- affinity for Eaf3 (in words) ([1]; 300K): does not have any significant affinity

Molecule: C[N+](C)(C)CCCC[C@H](N)C(=O)O [trimethyllysine, trimethylated lysine, reference compound]
- Kd [1]: 8.6 to 19.2 mM
- affinity relative to other methylated ligands (in words) [1]: significantly lower than that measured with trimethylated peptides under similar conditions

Molecule: ATGGVK36me3KPHRYR [H3K36me3]
- affinity for Eaf3 (in words) ([1]; 300K): very low affinity (KD in the millimolar range)
- affinity for Eaf3 (in words) ([1]; 300K, listed as methylated H3K36 peptide): millimolar-range affinity
- affinity relative to other methylated ligands (in words) [1]: comparable to that determined for the Eaf3-H3K4me3 complex
- Kd [1, 6]: 1.8 to 3.4 mM

Molecule: KRHRK20me3VLRDN [H4K20me3]
- Kd [1, 6]: 3 to 4 mM

Molecule: ATGGVKC36me3KPHRYR (ATGGVCKPHRYR; not fully specified (residue 6)) [H3KC36me3]
- affinity relative to other methylated ligands (in words) [1]: only slightly lower than that of the H3K36me3 peptide

Molecule: ART[Lys(Me3)]QTARKS [H3K4me3 peptide (1–10 aa)]
- Kd [2]: 1 to 3 mM

Molecule: ATGGV[Lys(Me3)]KPHRYR [H3K36me3 peptide (31–42 aa)]
- Kd [2]: 1.8 to 3.4 mM

Molecule: ATGGVCKPHRYR (not fully specified (residue 6)) [H3KC36me3 peptide (31–42 aa)]
- Kd [2]: 5 to 7 mM

Molecule: KRHR[Lys(Me3)]VLRDN [H4K20me3 peptide (16–25 aa)]
- Kd [2]: 3 to 4 mM

B1: Eaf3 (1–126 aa): Eaf3 extended by 13 residues (protein)
chain: MVDLEQEFALGGRCLAFHGPLMYEAKILKIWDPSSKMYTSIPNDKPGGSSQATKEIKPQKLGEDESIPEEIINGKCFFIHYQGWKSSWDEWVGYDRIRAYNEENIAMKKRLANEAKEAKKSLLEQQ
- oligomerization (in words) [3]: apparent homodimerization

B2: Y23A: single-point mutation in Eaf3-H3C36 (protein, UniProt Q12432 1-401, looked up, variant Y23A)
Chromatin …: MVDLEQEFALGGRCLAFHGPLMAEAKILKIWDPSSKMYTSIPNDKPGGSSQATKEIKPQKLGEDESIPEEIINGKCFFIHYQGWKSSWDEWVGYDRIRAYNEENIAMKKRLANEAKEAKKSLLEQQKKKKLSTSLGGPSNGGKRKGDSRSNASISKSTSQSFLTSSVSGRKSGRSSANSLHPGSSLRSSSDQNGNDDRRRSSSLSPNMLHHIAGYPTPKISLQIPIKLKSVLVDDWEYVTKDKKICRLPADVTVEMVLNKYEHEVSQELESPGSQSQLSEYCAGLKLYFDKCLGNMLLYRLERLQYDELLKKSSKDQKPLVPIRIYGAIHLLRLISVLPELISSTTMDLQSCQLLIKQTEDFLVWLLMHVDEYFNDKDPNRSDDALYVNTSSQYEGVALGM
modifications: fused to histone H3 peptide
- protein stability / precipitation / aggregation (in words) [4]: unstable and highly prone to precipitation

B3: Y81A: single-point mutation in Eaf3-H3C36 (protein, UniProt Q12432 1-401, looked up, variant Y81A)
Chromatin …: MVDLEQEFALGGRCLAFHGPLMYEAKILKIWDPSSKMYTSIPNDKPGGSSQATKEIKPQKLGEDESIPEEIINGKCFFIHAQGWKSSWDEWVGYDRIRAYNEENIAMKKRLANEAKEAKKSLLEQQKKKKLSTSLGGPSNGGKRKGDSRSNASISKSTSQSFLTSSVSGRKSGRSSANSLHPGSSLRSSSDQNGNDDRRRSSSLSPNMLHHIAGYPTPKISLQIPIKLKSVLVDDWEYVTKDKKICRLPADVTVEMVLNKYEHEVSQELESPGSQSQLSEYCAGLKLYFDKCLGNMLLYRLERLQYDELLKKSSKDQKPLVPIRIYGAIHLLRLISVLPELISSTTMDLQSCQLLIKQTEDFLVWLLMHVDEYFNDKDPNRSDDALYVNTSSQYEGVALGM
modifications: fused to histone H3 peptide
- protein stability / precipitation / aggregation (in words) [4]: unstable and highly prone to precipitation

B4: W84A: single-point mutation in Eaf3-H3C36 (protein, UniProt Q12432 1-401, looked up, variant W84A)
Chromatin …: MVDLEQEFALGGRCLAFHGPLMYEAKILKIWDPSSKMYTSIPNDKPGGSSQATKEIKPQKLGEDESIPEEIINGKCFFIHYQGAKSSWDEWVGYDRIRAYNEENIAMKKRLANEAKEAKKSLLEQQKKKKLSTSLGGPSNGGKRKGDSRSNASISKSTSQSFLTSSVSGRKSGRSSANSLHPGSSLRSSSDQNGNDDRRRSSSLSPNMLHHIAGYPTPKISLQIPIKLKSVLVDDWEYVTKDKKICRLPADVTVEMVLNKYEHEVSQELESPGSQSQLSEYCAGLKLYFDKCLGNMLLYRLERLQYDELLKKSSKDQKPLVPIRIYGAIHLLRLISVLPELISSTTMDLQSCQLLIKQTEDFLVWLLMHVDEYFNDKDPNRSDDALYVNTSSQYEGVALGM
modifications: fused to histone H3 peptide
- spectral change upon dimethylation of fused H3C36 [5]: Very little spectral change
- protein stability / precipitation / aggregation (in words) [4]: prone to precipitation

B5: W88A: single-point mutation in Eaf3-H3C36 (protein, UniProt Q12432 1-401, looked up, variant W88A)
Chromatin …: MVDLEQEFALGGRCLAFHGPLMYEAKILKIWDPSSKMYTSIPNDKPGGSSQATKEIKPQKLGEDESIPEEIINGKCFFIHYQGWKSSADEWVGYDRIRAYNEENIAMKKRLANEAKEAKKSLLEQQKKKKLSTSLGGPSNGGKRKGDSRSNASISKSTSQSFLTSSVSGRKSGRSSANSLHPGSSLRSSSDQNGNDDRRRSSSLSPNMLHHIAGYPTPKISLQIPIKLKSVLVDDWEYVTKDKKICRLPADVTVEMVLNKYEHEVSQELESPGSQSQLSEYCAGLKLYFDKCLGNMLLYRLERLQYDELLKKSSKDQKPLVPIRIYGAIHLLRLISVLPELISSTTMDLQSCQLLIKQTEDFLVWLLMHVDEYFNDKDPNRSDDALYVNTSSQYEGVALGM
modifications: fused to histone H3 peptide
- spectral change upon dimethylation of fused H3C36 [5]: Very little spectral change

B6: Eaf3: N-terminal 1–113 aa of budding yeast Eaf3 (protein)
chain: MVDLEQEFALGGRCLAFHGPLMYEAKILKIWDPSSKMYTSIPNDKPGGSSQATKEIKPQKLGEDESIPEEIINGKCFFIHYQGWKSSWDEWVGYDRIRAYNEENIAMKKRLAN
- protein stability / precipitation / aggregation (in words) [4]: has a tendency to aggregate
